How the values were obtained:
[1] = target: SaPI1 Stl repressor (Stl^SaPI1), expressed alone with an N-terminal His6-tag and TEV site (Staphylococcus aureus (pathogenicity island SaPI1)); assay: SEC-MALS; 2 mg/ml, Stl alone or in complex with Sri; 50 mM Tris-HCl pH 7.5, 250 mM NaCl, 5 mM MgCl2; Protein KW403 column (Shodex), 0.4 ml/min
[2] = target: SaPI1 Stl repressor (Stl^SaPI1), expressed alone with an N-terminal His6-tag and TEV site (Staphylococcus aureus (pathogenicity island SaPI1)); assay: SEC-SAXS; 10.0 mg/ml Stl^SaPI1 and 6.5 mg/ml Stl^SaPI1-Sri (His6 tag on Sri); Superdex 200 Increase 3.2, 10 mM Tris pH 8, 1% (w/v) sucrose; mass by Bayesian inference
[3] = target: SaPI1 Stl repressor (Stl^SaPI1), untagged, co-expressed with His6-Sri (Staphylococcus aureus (pathogenicity island SaPI1)); assay: SEC-MALS; 2 mg/ml, Stl alone or in complex with Sri; 50 mM Tris-HCl pH 7.5, 250 mM NaCl, 5 mM MgCl2; Protein KW403 column (Shodex), 0.4 ml/min
[4] = target: SaPI1 Stl repressor (Stl^SaPI1), untagged, co-expressed with His6-Sri (Staphylococcus aureus (pathogenicity island SaPI1)); assay: crystal structure; 80α Sri-Stl^SaPI1 SeMet derivative, His6-tag of Sri removed; sitting drop, 15 °C, 0.4 M ammonium phosphate, 25% PEG200; SAD, 2.9 Å
[5] = target: SaPI1 Stl repressor (Stl^SaPI1), untagged, co-expressed with His6-Sri (Staphylococcus aureus (pathogenicity island SaPI1)); assay: SEC-SAXS; 10.0 mg/ml Stl^SaPI1 and 6.5 mg/ml Stl^SaPI1-Sri (His6 tag on Sri); Superdex 200 Increase 3.2, 10 mM Tris pH 8, 1% (w/v) sucrose; mass by Bayesian inference
[6] = target: SaPI1 Stl repressor L201E mutant (Stl^(SaPI1 L201E)), expressed alone (Staphylococcus aureus (pathogenicity island SaPI1)); assay: SEC-MALS; 2 mg/ml, Stl alone or in complex with Sri; 50 mM Tris-HCl pH 7.5, 250 mM NaCl, 5 mM MgCl2; Protein KW403 column (Shodex), 0.4 ml/min
[7] = target: SaPI1 Stl repressor L201E mutant (Stl^(SaPI1 L201E)), untagged, co-expressed with His6-Sri (Staphylococcus aureus (pathogenicity island SaPI1)); assay: crystal structure; 80α Sri-Stl^(SaPI1 L201E), His6-tag of Sri removed; sitting drop, 15 °C, 0.1 M Tris-HCl pH 8.5, 22% PEG350; molecular replacement, 2.97 Å
StlSaPI1 = StlSaPI1 (Staphylococcus aureus pathogenicity …, UniProt O54475 1-247); assay: EMSA; two complex species; BLI: 50 mM Tris-HCl pH 8, 300 mM NaCl, 5 mM MgCl2, 50 uM EDTA, 0.005% Tween, 25 C; EMSA: 50 mM Tris-HCl pH 8, 5 mM MgCl2, 1 mM DTT, 0.1 mM EDTA, 5% glycerol, 1; settings: protein: recombinant; tags: N-terminal His6 + TEV site; chain copies: 4; near blunt as printed

**Q.** How did the stoichiometry N [1] turn out when “SaPI1 Stl repressor (Stl^SaPI1), expressed alone with an N-terminal His6-tag and TEV site (natural protein)” was run?
**A.** The stoichiometry N was 4.

**Q.** And the stoichiometry N [2]?
**A.** The stoichiometry N was 4.

**Q.** How did the stoichiometry N [3] turn out when “SaPI1 Stl repressor (Stl^SaPI1), untagged, co-expressed with His6-Sri (natural protein)” was run?
**A.** The stoichiometry N was 4.

**Q.** And the stoichiometry N [4]?
**A.** The stoichiometry N was 4.

**Q.** What about the stoichiometry N [5] of the same molecule?
**A.** Its stoichiometry N is 4.

**Q.** “SaPI1 Stl repressor L201E mutant (Stl^(SaPI1 L201E)), expressed alone (natural protein)” was tested. Which stoichiometry N [6] did it give?
**A.** Its stoichiometry N is 2.

**Q.** Which stoichiometry N [7] does the source give for “SaPI1 Stl repressor L201E mutant (Stl^(SaPI1 L201E)), untagged, co-expressed with His6-Sri (natural protein)” here?
**A.** The stoichiometry N was 2.

B1: Operator 1-4 (dsDNA)
DNA 1: GGATAAGTTGTACTTTGAGTACAATATTTTAAAAAATGAAAAAAAAAAAAGAAGTGTGTAATATTTGTTTAAAAAACAAAAAAAAAAAAAGTACTTGTAGTACTAAAAGAAC
DNA 2: GGTTCTTTTAGTACTACAAGTACTTTTTTTTTTTTTGTTTTTTAAACAAATATTACACACTTCTTTTTTTTTTTTCATTTTTTAAAATATTGTACTCAAAGTACAACTTATCC
**Q.** Does B1 bind (StlSaPI1)?
**A.** Result: binds
